# In patent US20190218261A1, “TARGETED ENHANCED DNA DEMETHYLATION” (The Jackson Laboratory, priority 2016, published 2019):
# Tests used:
# [1] = test system: MLH1 protein in HEK293T cells; experiment: Western blot of MLH1 protein with anti-hMLH1 monoclonal antibody; assay type: cell-based, human; conditions: HEK293T collected 3 day after transfection
# Method: To determine the effect of Casilio-ME targeting on MLH1 protein synthesis, Western blot analyses were performed on total protein extracted from HEK293T transfected cells as well as untransfected HEK293 and AzaC-treated HEK293T cells using anti-hMLH1 monoclonal antibody. […] Casilio-ME-mediated induction of MLH1 synthesis is still remarkable and could be improved by, for example, tilling multiple guide RNAs to augment the range and efficiency of CpG demethylation to achieving better activation of hMLH1 expression.
# Western blot analysis. Protein from cell extracts (30 μg) were separated by electrophoresis on 10% SDS-polyacrylamide gels and then transferred to nitrocellulose membranes at 100 V for 1 hour using Bjerrum Schafer-Nielsen Buffer with SDS. Blocked membrane in 5% Blotting-Grade Blocker (BioRad) in TBS-T were then incubated overnight at 4° C. with the indicated antibodies, and the protein bands were detected using Horseradish peroxidase-conjugated secondary antibodies and Clarity Western ECL Substrate according to manufacturer's instructions (BioRad). Gels were imaged using a G:Box (Syngene).
# [2] = test system: hMLH1 expression (methylation-silenced hMLH1 promoter) in HEK293T cells; experiment: hMLH1 mRNA levels by TaqMan qRT-PCR in transfected HEK293T cells; assay type: cell-based, human
# Method: To test the system, HEK293T cells were transfected with Casilio-ME components including Ct or Nt-fusion TET1-effector and a combination of 3 or 2 sgRNAs. Relative levels of hMLH1 mRNA were determined in TaqMan assays by using RNA extracted from cells 60 hours post-transfection and GAPDH as endogenous control for normalization of qRT-PCR measurements.
# Cell culture and transfection. HEK293T cells were cultivated in Dulbecco's modified Eagle's medium (DMEM)(Sigma) with 10% fetal bovine serum (FBS)(Lonza), 4% Glutamax (Gibco), 1% Sodium Pyruvate (Gibco) and penicillin-streptomycin (Gibco) in an incubator set to 37° C. and 5% CO2. When indicated cells were treated with 2.5 μM or 5 μM 5-Azacytidine (sigma) as indicated with a daily change of medium containing freshly diluted drug. Cells were seeded into 12-well plates at 150,000 cells per well the day before being transfected with 100 ng of dCas9 construct, 100 ng of modified sgRNA construct and 200 ng of PUF-fusion with Attractene transfection reagent according to manufacturer's instructions (Qiagen). In dCas9-direct fusion experiments, cells were transfected with 200 ng dCas9-fusion constructs and 200 ng of modified sgRNA constructs. Transfected cells were harvested 60 hours after transfection, or otherwise indicated, and cell pellets were used for extractions of RNA, genomic DNA and protein.
# Quantitative RT-PCR analysis. Cells were harvested, washed with Dulbecco's phosphate-buffered saline (dPBS), centrifuged at 125×g for 5 min and then the flash-frozen pellets were stored at −80° C. RNA was extracted using RNeasy Plus Mini Kit according to the manufacturer's instructions (Qiagen). cDNA libraries were made using Applied Biosystems High Capacity RNA-to-cDNA kit with 200 ng to 1 μg of RNA. TaqMan gene expression assays (Applied Biosystems) were designed using GAPDH (Hs03929097, VIC) as endogenous control and hMLH1 (Hs00179866, FAM) as target. TaqMan Universal Master Mix II, with UNG (Applied Biosystems) was used for Quantitative PCR (qPCR), with 2 μl of diluted cDNA used for each reaction. Activation was analyzed with the Applied Biosystems ViiA7 instrument. Gene expression levels were calculated by “delta delta Ct” algorithm and normalized to control samples.
# HEK293T cells were cultivated in Dulbecco's modified Eagle's medium (DMEM) (Sigma) with 10% fetal bovine serum (FBS) (Lonza), 4% Glutamax (Gibco), 1% Sodium Pyruvate (Gibco) and penicillin-streptomycin (Gibco) in an incubator set to 37° C. and 5% CO2. Cells were seeded into 12-well plates at 150,000 cells per well the day before being transfected with 100 ng of dCas9 construct, 100 ng of modified sgRNA construct and 200 ng of PUF-fusion with Attractene transfection reagent according to manufacturer's instructions (Qiagen). Transfected cells were harvested 3 days after transfection, or otherwise indicated, and cell pellets were used for RNA extractions.
# Cells were harvested, washed with Dulbecco's phosphate-buffered saline (dPBS), centrifuged at 125×g for 5 min and then the flash-frozen pellets were stored at −80° C. RNA was extracted using RNeasy Plus Mini Kit according to the manufacturer's instructions (Qiagen). cDNA libraries were made using Applied Biosystems High Capacity RNA-to-cDNA kit with 200 ng to 2 μg of RNA. TaqMan gene expression assays (Applied Biosystems) were designed using GAPDH (Hs03929097, VIC) as endogenous control and hMLH1 (Hs00179866, FAM) as target. TaqMan Universal Master Mix II, with UNG (Applied Biosystems) was used for Quantitative PCR (qPCR), with 2 μl of diluted cDNA used for each reaction. Activation was analyzed with the Applied Biosystems ViiA7 instrument. Gene expression levels were calculated by “delta delta Ct” algorithm and normalized to control samples.
molecule,measurement,setting,value
GADD45A-PUFa-TET1(CD): GADD45A at N-terminus of PUFa-TET1(CD); SEQ ID NO:104 (protein) MTLEEFSAGEQKTERMDKVGDALEEVLSKALSQRTITVGVYEAAKLLNVDPDNVVLCLLAADEDDDRDVALQIHFTLIQAFCCENDINILRVSNPGRLAELLLLETDAGPAASEGAEQPPDLHCVLVTNPHSSQWKDPALSQLICFCRESRYMDQWVPVINLPERSRTGAATMIDGGGGSDPKKKRKVDPKKKRKVDPKKKRKVGSTGSRNDGGGGSGGGGSGGGGSGRAGILPPKKKRKVSRGRSRLLEDFRNNRYPNLQLREIAGHIMEFSQDQHGSRFIQLKLERATPAERQLVFNEILQAAYQLMVDVFGNYVIQKFFEFGSLEQKLALAERIRGHVLSLALQMYGSRVIEKALEFIPSDQQNEMVRELDGHVLKCVKDQNGNHVVQKCIECVQPQSLQFIIDAFKGQVFALSTHPYGCRVIQRILEHCLPDQTLPILEELHQHTEQLVQDQYGNYVIQHVLEHGRPEDKSKIVAEIRGNVLVLSQHKFASNVVEKCVTHASRTERAVLIDEVCTMNDGPHSALYTMMKDQYANYVVQKMIDVAEPGQRKIVMHKIRPHIATLRKYTYGKHILAKLEKYYMKNGVDLGDPKKKRKVDPKKKRKVGGRGGGGSGGGGSGGGGSGPAELPTCSCLDRVIQKDKGPYYTHLGAGPSVAAVREIMENRYGQKGNAIRIEIVVYTGKEGKSSHGCPIAKWVLRRSSDEEKVLCLVRQRTGHHCPTAVMVVLIMVWDGIPLPMADRLYTELTENLKSYNGHPTDRRCTLNENRTCTCQGIDPETCGASFSFGCSWSMYFNGCKFGRSPSPRRFRIDPSSPLHEKNLEDNLQSLATRLAPIYKQYAPVAYQNQVEYENVARECRLGSKEGRPFSGVTACLDFCAHPHRDIHNMNNGSTVVCTLTREDNRSLGVIPQDEQLHVLPLYKLSDTDEFGSKEGMEAKIKSGAIEVLAPRRKKRTCFTQPVPRSGKKRAAMMTEVLAHKIRAVEKKPIPRIKRKNNSTTTNNSKPSSLPTLGSNTETVQPEVKSETEPHFILKSSDNTKTYSLMPSAPHPVKEASPGFSWSPKTASATPAPLKNDATASCGFSERSSTPHCTMPSGRLSGANAAAADGPGISQLGEVAPLPTLSAPVMEPLINSEPSTGVTEPLTPHQPNHQPSFLTSPQDLASSPMEEDEQHSEADEPPSDEPLSDDPLSPAEEKLPHIDEYWSDSEHIFLDANIGGVAIAPAHGSVLIECARRELHATTPVEHPNRNHPTRLSLVFYQHKNLNKPQHGFELNKIKFEAKEAKNKKMKASEQKDQAANEGPEQSSEVNELNQIPSHKALTLTHDNVVTVSPYALTHVAGPYNHWVID,MLH1 protein amount by Western blot (whole cell extracts),[1],higher protein amounts
same,enhancement of hMLH1 expression relative to PUFa-TET1(CD) alone,"[2]; GADD45A two-in-one effectors, HEK293T, TaqMan",approximately 9 fold
same,ranking of activation among GADD45A and TET1(CD) fusion configurations,[2]; methylation-silenced hMLH1,highest activity
